Assay results from patent US6028055A, “Receptor selective BNP” (Genetech, Inc., priority 1997, dated 2000).

Key:
NPR-C = target: T1, NPR-C (Homo sapiens, UniProt P17342); test: Measurement of binding affinities for NPR-C, membranes from stable 293 cell lines, 125I rat ANP displacement; design: unit not given here; conditions: pure synthetic peptide vs 30 pM 125I rat ANP, 2 hours room temperature; duplicate points, three separate assays
T1 construct: expressed in transfected cells
T1 sequence (P17342 27-541): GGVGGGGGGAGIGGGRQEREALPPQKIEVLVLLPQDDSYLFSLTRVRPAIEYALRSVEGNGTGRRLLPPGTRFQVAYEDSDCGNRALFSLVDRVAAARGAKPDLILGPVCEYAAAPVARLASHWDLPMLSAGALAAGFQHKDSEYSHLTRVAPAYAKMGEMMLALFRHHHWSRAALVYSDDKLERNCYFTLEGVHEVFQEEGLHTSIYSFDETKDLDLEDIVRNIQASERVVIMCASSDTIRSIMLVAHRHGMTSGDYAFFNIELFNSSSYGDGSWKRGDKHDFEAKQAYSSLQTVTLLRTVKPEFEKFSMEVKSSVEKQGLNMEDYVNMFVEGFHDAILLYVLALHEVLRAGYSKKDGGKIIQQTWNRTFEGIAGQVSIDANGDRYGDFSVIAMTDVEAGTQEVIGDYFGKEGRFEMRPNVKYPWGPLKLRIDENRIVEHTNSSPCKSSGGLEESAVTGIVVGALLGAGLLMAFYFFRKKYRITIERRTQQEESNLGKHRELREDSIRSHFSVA
Protocol: (§1) Membrane Preparation Membranes from stable 293 cell lines expressing NPR-A (Lowe and Fendly (1992) J. Biol. Chem.) or NPR-C (Cunningham et al. (1994) supra) were prepared by removing the cells from tissue culture plates with 0.5MM EDTA in PBS, centrifuging at 225×g, 4° C., and resuspending in 50 mM Hepes Ph7.4, 1 mM EDTA, 1 mM DTT, 250 mM Sucrose, 0.7 μg/ml Pepstatin A, 0.5 μg/ml Leupeptin, 1 mM PMSF, 1 μM Phosphoramidon. The resuspended cells were homogenized for 30 seconds with a Brinkman polytron on setting 5. The homogenate was centrifuged in 30 ml corex tubes in Sorval HB-4 rotor at 400×(1500 rpm) for 10 minutes at 4° C. The supernatant was centrifuged again in screw cap polycarbonate tubes (Beckman 355618) at 100,000×g (31,500 rpm) for 30 minutes, 4° C. in a Beckman TI60 rotor. The pellet was resuspended in 50 mM Hepes, 0.1 mM EDTA, 5.0 mM MgCl2, 100 mM NaCl, 0.7μg/ml Pepstatin A, 0.5 μg/ml Leupeptin, 1 mM PMSF, 1 μM Phosphoramidon and homogenized again with 15 strokes in a Dounce homogenizer (Wheaton 7 ml, #357542). The membranes were passed through a 22 gauge needle several times before aliquoting into eppendorf tubes for storage at -80° C.
(§2) The binding was allowed to go for 2 hours at room temperature in 96 well U-bottomed microtiter polypropylene plates (Sigma M-4029) with gentle agitation. The bound hormone was separated from the free using a Packard Filtermate 196 cell harvester and 1% polyethyleneimine-saturated Packard unifilter-96 GF/B plates by vacuum filtration. The plates were dried under vacuum chamber for 10 minutes prior to adding 40 μl Microscint-20 scintillant and counting in a Packard Topcount scintillation counter. Each affinity represents points measured in duplicate within three separate assays.

NPR-A = target: T2, NPR-A (Homo sapiens, UniProt P16066); test: Measurement of binding affinities for NPR-A, membranes from stable 293 cell lines, 125I rat ANP displacement; conditions: pure synthetic peptide vs 30 pM 125I rat ANP, 2 hours room temperature; duplicate points, three separate assays
T2 construct: expressed in transfected cells
T2 sequence (P16066 33-1061): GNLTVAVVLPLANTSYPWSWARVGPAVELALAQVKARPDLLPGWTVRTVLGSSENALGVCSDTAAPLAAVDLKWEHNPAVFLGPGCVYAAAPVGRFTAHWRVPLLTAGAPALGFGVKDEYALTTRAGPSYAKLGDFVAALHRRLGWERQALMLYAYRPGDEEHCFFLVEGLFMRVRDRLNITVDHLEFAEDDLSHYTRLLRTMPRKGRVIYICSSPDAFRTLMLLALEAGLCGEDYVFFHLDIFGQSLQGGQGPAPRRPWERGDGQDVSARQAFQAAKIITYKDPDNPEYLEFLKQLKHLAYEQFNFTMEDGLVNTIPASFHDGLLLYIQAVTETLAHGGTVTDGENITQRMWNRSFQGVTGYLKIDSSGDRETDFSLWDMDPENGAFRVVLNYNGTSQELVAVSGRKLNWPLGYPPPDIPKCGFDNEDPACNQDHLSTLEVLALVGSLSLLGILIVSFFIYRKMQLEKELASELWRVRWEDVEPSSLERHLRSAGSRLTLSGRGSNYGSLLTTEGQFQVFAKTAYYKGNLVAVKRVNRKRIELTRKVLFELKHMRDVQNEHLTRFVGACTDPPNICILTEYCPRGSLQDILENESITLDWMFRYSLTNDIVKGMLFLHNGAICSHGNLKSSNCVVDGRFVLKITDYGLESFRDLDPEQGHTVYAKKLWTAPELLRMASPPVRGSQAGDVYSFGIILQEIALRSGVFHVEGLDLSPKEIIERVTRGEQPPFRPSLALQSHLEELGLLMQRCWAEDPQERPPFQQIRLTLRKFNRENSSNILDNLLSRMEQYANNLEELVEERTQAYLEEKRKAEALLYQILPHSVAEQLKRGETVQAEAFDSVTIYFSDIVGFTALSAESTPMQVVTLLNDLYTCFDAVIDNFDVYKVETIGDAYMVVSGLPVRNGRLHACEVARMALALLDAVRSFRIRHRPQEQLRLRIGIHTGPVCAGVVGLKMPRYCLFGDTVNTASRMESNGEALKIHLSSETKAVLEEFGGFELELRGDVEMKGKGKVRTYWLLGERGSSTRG
Protocol: as §1, §2

[1] = target: human natriuretic peptide receptor-A expressed in 293 cells (human) (UniProt P16066); test: competition with 30 pM 125I-rat ANP on membranes of 293 cells expressing NPR-A; unit not given
[2] = target: T3, NPR-C expressed in stable 293 cell lines (membranes) (human) (UniProt P17342); test: competition with 30 pM 125I-rat ANP on membranes of 293 cells expressing NPR-C; unit not given
T3 sequence: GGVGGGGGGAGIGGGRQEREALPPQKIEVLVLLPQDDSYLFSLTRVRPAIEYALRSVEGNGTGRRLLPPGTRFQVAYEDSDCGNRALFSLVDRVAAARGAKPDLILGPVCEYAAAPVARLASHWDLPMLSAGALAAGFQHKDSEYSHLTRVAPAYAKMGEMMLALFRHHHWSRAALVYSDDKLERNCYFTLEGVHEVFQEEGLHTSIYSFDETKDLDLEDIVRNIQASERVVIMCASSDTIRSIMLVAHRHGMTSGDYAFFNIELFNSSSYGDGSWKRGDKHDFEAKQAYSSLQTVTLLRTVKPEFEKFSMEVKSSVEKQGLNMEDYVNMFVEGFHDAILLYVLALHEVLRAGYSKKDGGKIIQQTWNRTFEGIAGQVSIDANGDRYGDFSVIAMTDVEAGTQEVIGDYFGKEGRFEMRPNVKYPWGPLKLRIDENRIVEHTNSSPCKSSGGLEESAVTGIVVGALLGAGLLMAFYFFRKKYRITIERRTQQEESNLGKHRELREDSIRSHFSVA

[3] = target: T4, NPR-C expressed in stable 293 cell lines (membranes) (human, UniProt P17342); test: as above
T4 sequence: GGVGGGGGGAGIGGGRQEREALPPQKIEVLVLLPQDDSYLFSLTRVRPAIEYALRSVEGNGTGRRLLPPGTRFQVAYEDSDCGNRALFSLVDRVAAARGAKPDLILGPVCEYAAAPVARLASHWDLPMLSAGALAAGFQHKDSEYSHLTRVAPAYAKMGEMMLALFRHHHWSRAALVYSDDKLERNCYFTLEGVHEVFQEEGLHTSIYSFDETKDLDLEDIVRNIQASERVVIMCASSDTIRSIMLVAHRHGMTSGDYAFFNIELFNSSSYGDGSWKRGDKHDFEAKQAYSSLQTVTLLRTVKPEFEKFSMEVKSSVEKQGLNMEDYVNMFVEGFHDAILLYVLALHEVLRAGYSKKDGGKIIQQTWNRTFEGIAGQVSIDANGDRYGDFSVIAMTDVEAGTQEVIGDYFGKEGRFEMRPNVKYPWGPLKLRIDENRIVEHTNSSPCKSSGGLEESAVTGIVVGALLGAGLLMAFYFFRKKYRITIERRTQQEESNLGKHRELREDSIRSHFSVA
Protocol: as §1, with “µg/ml” for “μg/ml”, “µM” for “μM”, “MgCl_2,” for “MgCl2,”, “0.7µg/ml” for “0.7μg/ml”, “−80°” for “-80°”
as §2, with “µl” for “μl”

[4] = target: human natriuretic peptide receptor-A expressed in 293 cells (human, UniProt P16066); test: competition with 30 pM 125I-rat ANP on membranes of 293 cells expressing NPR-A; unit not given
Protocol: as §1, with “µg/ml” for “μg/ml”, “µM” for “μM”, “MgCl_2,” for “MgCl2,”, “0.7µg/ml” for “0.7μg/ml”, “−80°” for “-80°”
as §2, with “µl” for “μl”

Chain of hBNP Ser19Arg (SEQ ID NO: 4) (peptide) (peptide): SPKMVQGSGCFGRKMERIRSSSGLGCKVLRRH

Row | Molecule | NPR-C binding affinity (Assay #1) (NPR-C) | NPR-A binding affinity (Assay #1) (NPR-A) | affinity (NPR-A) [1] | affinity (NPR-C) [2] | affinity (NPR-C) [3] | affinity (NPR-A) [4]
1 | hBNP Gly23Phe, Leu24Trp, Gly25Arg (SPKMVQGSGCFGRKMERISSSSFWRCKVLRRH) | 9363 ± 2067 | 378 ± 136 | – | – | – | –
2 | hBNP Ser19Arg | 95,498 ± 14,603 | 155 ± 55.3 | – | – | – | –
3 | hBNP Ser19Arg Gly23Phe, Leu24Trp, Gly25Arg (SPKMVQGSGCFGRKMERIRSSSFWRCKVLRRH) | 172,400 ± 120,096 | 287 ± 27 | – | – | – | –
4 | hBNP Ser19Arg (SEQ ID NO: 4) (peptide) | – | – | 155 | 95500 | – | –
5 | hBNP Gly23Phe, Leu24Trp, Gly25Arg (SEQ ID NO: 2) (peptide) | – | – | 378 | 9360 | – | –
6 | SLRRSSCFGGRIDRIGAQSFWRCNSFRY [hANP Net12Ile, Gly20Phe, Leu21Trp, Gly22Arg (SEQ ID NO:50)] | – | – | – | – | 295 | 507
7 | SLRRSSCFGGRIDRIGAQSGLGCNSFRY [hANP (SEQ ID NO: 51)] | – | – | – | – | 198 | 43.5
8 | SPKMVQGSGCFGGRMDRIRSSSGLGCKVLRRH [hBNP Arg13Gly, Lys14Arg, Ser19Arg (SEQ ID NO:49)] | – | – | – | – | 28400 | 518
9 | SLRRSSCFGGRIDRIRAQSGLGCNSFRY [hANP Gly16Arg (SEQ ID NO: 52)] | – | – | – | – | 10600 | 17.2
10 | SPKMVQGSGCFGRKMERIRSSSFWRCKVLRRH [hBNP Ser19Arg, Gly23Phe, Leu24Trp, Gly25Arg (SEQ ID NO: 7)] | – | – | 287 | 172000 | – | –
